Here are results for 13 sequences from a protein production outcome set (Wang et al. 2014).

This data set is described as follows: label from the status in PepcDB records.
For “MHAKFLDTLDWGILIAYFLILIAIGIWASSKRKKGSSLFLAEHSLRWHHIGFSMWGTNVGPSMLIASASAGFTTGIVSGNYAWYAFVFICLLAFVFAPRYLGSRVSTLPEFMGKRFGQSTRNILAWYTIVTILISWLALTLFAGGVLIRQVFDIPMWQSALILLIISAFFTMLGGLKAVAYTNVYQMILLILVSAALAIVGIYKVGGISALTDAVPADFWNLFRPNDDTAFPWLPIILGYPVMGVWFWCTDQSMVQPVLAAKSLKEGQLGTNFTGWLKILDVPLYILPGIICLALFPQLENPDEAYMTMVTHLFPVGMVGLVLAVLTAALVSTIGSALNALSTVFTMDIYVKKIRPQAKQKEIIRVGQVVTVAGALISVIITIAIDSIHGLNLFNVFQSVLGFIAPPMAAVFLFGVFWKRTTTLAANAALTVGTVFSIGVGVLYLWVFPADQYSAWPHFMLLSFYLFVIIGIGMVVVGLLDKTPQTAILNMEKIEEKPARIVLILWGLLIVTMIGLYIFFNGH”, the protein production entry is on record as “failed”. Under “MATAGNPWGWFLGYLILGVAGSLVSGSCSQIINGEDCSPHSQPWQAALVMENELFCSGVLVHPQWVLSAAHCFQNSYTIGLGLHSLEADQEPGSQMVEASLSVRHPEYNRPLLANDLMLIKLDESVSESDTIRSISIASQCPTAGNSCLVSGWGLLANGRMPTVLQCVNVSVVSEEVCSKLYDPLYHPSMFCAGGGQDQKDSCNGDSGGPLICNGYLQGLVSFGKAPCGQVGVPGVYTNLCKFTEWIEKTVQAS” stands “not failed”; under “MIDHRPTSWSRLCTALTSGASCTIGGQAVMEGVMMRNGDRLAIAMRRPDGEIVAESRPWFSLTRSAWLKRPFVRGFPILVETLVNGIKALNRSAEQAVEGETGEELKPWQLAATLAVSVAMALGLFVVVPHLFSIGMKLLGLGGDVEGLSFHMWDGFFKFAVFIGYIVAISFVPDIRRVFQYHGAEHKVIRAFEAAGDVTPDTAMHHSRLHPRCGTTFLLFVLSISIILHAVLVPLLMLVWTPSGAFAKHGVTVLFKLLLMIPISALAYETIRYAARLGEGLTGTLLRAPGMLLQKLTTGEPDREQLEVAIVALREALGDDAPQSVRAPAYRHLE”, “failed”. Under “MTKPQGAVAEKATPAVPKPQKVRVIVEFNKESILDYATEQKKTVAQLNQADVEKKLQSIKQEQDKVLKNIEKSVHFDSSKVKRYDAIINGVALDIQAQEIEKLKTIADVRRVYVSQEYVQTKPLLSSSGQLIGLPEVWNNSQYKGEGTVVAVIDSGVDFKHQALKIKEPNRAKYNKTSIEKLIHEKNLKGKFYSEKVPYGYNYYDYNDNLKDSYGVMHGMHVTGIVGANDDNQKLYGVAPNAQILAMKVFSDDQQNPTTFTDVWLKALDDAILLKADVVNMSLGTPAGFVHEGKDYPELEVIARACKAGIVIAVAAGNEGNITDGNTYGVKPLAENYDTALIANPALDDNTLAVASMENLKKHAHVLKFKDKKSGTEVTEVINLHVAPNASKTIIGLAVDLGAGAPSELSKHFDLSGKIAMLEIPEDNKSNGFLEKVQAITKLNPAAILLYNNAKVKDDLGSQLLVESEAAKFNIARITRSTYNNIKNNSNKIITILTERQAIDNSLAGQLSSYSSWGPTPDLRLKPEITAPGGHIFSTVEDNQYADKSGTSMAAPQVAGAAAVLKQYITDKKIPVDNAADFIKLLLMNTAQPIINKQSKDGKTPYFVRQQGSGAMNLAKALVTTVVATVTGTNDNNADGKLELRELKEKKFKARILLRNFGKTNKTYIISSEAIADPVDEKGFRTQNSEHLVSKKADAVTRKVTVEAGKTLAVDLDVDYSDAEALTRNNFLEGYLNLKDTEGVADLHLPFLGFYGSWTEQKAIDAFEGISEIGNGDKKRRVQFYVNKETNKTSSTFTTNGMLSLPIYNNTVFFSPNSPFYDKAGVRIAALRNMEYVQYSIIDPDTNKEVRVLGRSHDVRKLYRLDYRNSFAMMPDSIWDGKIKD” stands “failed”; under “FIQIKPGYDYPIISALRAIISGNADAVPDEVGGVSKEKLVELAETMKNAKYGAVLYGLGVTQSRGRDRNVENAVKLIQLLNRHTRWVIWPMRGHYNVVGAGEVPAWEVGYQYAIDFSRGYPR”, “failed”. In the case of “MDSSLANINQIDVPSKYLRLLRPVAWLCFLLPYAVGFGFGITPNASLQHAVLGLLSFAFWMAFSFTINALYDRDVDRLHDGRVKDLNLSMQPLVTGEISVREAWLYCIAFLALSLATAAAINEKFFLAMLGANIIGYVYSAPPRFKAWPVMDVICNALAAVLAFYAGLSIGGAEVPIAIYPAAFFLAATFYIPTAVSDYEFDKKAGLKNTPVFFGPERALKSLYPLSAITVILWAYVFLMAERIEIKVISPLIIAYTLIYTFIINSRWDGEKLNVSPNLILTPFGIISALFIAYGFAVISVLG”, the protein production entry is recorded as “failed”. Under “AIAASLSDQSGSIGSEQTRPSGAIPVESLPPQALEQLIASLQQEVEQLADALQQLNFANQRWTLCKQSIEAFAEETTRVDLPGAQSRATDAISSTASAKPETSVEVNQNQRLLVPLSRSLYVLGRVINPERCLIDIGTGYHVERKLADAAEFFDRRLKHVRGSMRQLTLKIDQNQQQMQTIREILVRKLAGAQQAAEHT” stands “failed”.

Take “MKKFVTRRLGRKKRRDTEIVLPTKDDDCREEHGSEVSCMEDVEEMLQELSMKGEFVFGSFWRQGDSAANDFDFGNSQYEIANYKDHRSLSLLITQDVLLER”: the protein production entry was “failed”.

Turning to “EVPIGFDTDELSFDMSLVLLTGDMQTKASDPNYTYATTEELTIQNCHVAVFDKDGKRIYFKNFYSKDLGEMKTIGNLSGYELQLEGVRTFGKEDKKVSVLVVANANNANNSPFDNLTTYDGVDNSYTAKTIAKGPVTASLLVKIGKSETTLKYNQDNAPVTVSLIQLSAKIEYTGVYKKENGELLEGFSLTKVAGLNASSKITIFNTSAVENGAFSDLAYPTTKPVTFYTYEISDAFKEVILSVQSGVEPKEYPFPANKFIKGNYYRIKGLKSSTEIEWVLENVEDKEVTLDPFE”, the protein production result is “not failed”. Under “MNARSGDNVVLAILLSLLALVLFDMMGLIIKYLSPRYGAAELSAYRNFFGVFPSVIALWSSPGWHRAGRPWRIRQWRLGLMRGVYVTFAQFLFYYSLGKLAFATASTITYANAVFMTALAVPLLGERVGLMRWAAVLLGFAGVLLVMKPGSDSFTPDALAPLGAAFLYALTGVSARQMDSAVPSALINLYSVVAALVGALALALLSGGFTPLAQWSDLGWIAAMGGFGGTAVLCLVASYRMTEQSNLAPFSYFGIPIAFVAGWLVFDETPWADLFPGAFFIAGGGLMIVWRERIRSRAGRRISN” stands “failed”; under “MSLFIALCGLILAGRLILKNYNPQGVLFFVGIVMMTISIFTNNATFVDKSTGWIGFDVFEYISMVFGKQSGGLGLKIMLIGGFALLMSAIGASQVMVKLTAKPLMKLNSPYLMLALAFILGQMLSLFISSATGLGLLLMATLYPVLIRLGCSKAGVASVLASTCAIEFGPGSGNSILAAQTAGLEITEYFVGEQLPIISVLIIVVAIMHAITQRFFDRNDEKNQTLEPINYEDIESEQSAPFYYVILPMLPLFFMLTFSSLGVKTINVGMATAIILSIFISLVFEFIREREVKPVFEKLQGVFDDMGKVFASVVTLIIAGQTFSMGLKSIGAIDSMLHMASSVGLSAAVIILFMALLTFIISALMGSGNAAFFSFAPMVPQIAHKIGANTVDMILPIQLSAGFGRTISPIAGVIIAVAGISGLSPFDIVRRTLIPMVSGWLLMLILTFSKGGQLEQLMPFLIVILVLSVGVGWIMKRKNNRTQLTQ”, “failed”. Under “MQQKDAVPDTAKKLKAPLTGLKTEQKVTERRPVAVVVNNHPKARPQSGLSKADIVIEALAEGQITRFLAIFQSQMPETVGPVRSAREYFVTLSNGFDSIFVHHGWSPGAKKQLESGAADYMNGLDFDGSLFWRADFSKPPHNSYTSYDYIKKAAEQKGYKLKQETNPLLFQTSDAKPANESYNVRVDYGTNNVTNLVEYNYDKKAEFYTRSSDGVITTDRETGKPVAMQNIFIVEASHHIIDQDGRRDIDLESGGKGLLFQHGNVIETDWKQVNGRIVPVKDGKWLPFVPGKTWINIVPDLDAASISKGEGVLEHHHHHH” stands “not failed”; under “MSDQPMNEVQDNAAPANPWLELRRLTPARIALGRTGTSLPTCAQLDFQAAHAQARDAVHLAFDHAAISAQLAEKGRETILLHSAAADRDSYLQRPDLGRRLNDESAQTLRDYAAAHPGGLDLAVVVADGLSALAVHRHAVPFLTRLEEQASAEGWTLSPVLMVEQGRVAVADEIGELLGAKMVVILIGERPGLSSPDSLGLYFTYAPKVGLNDAHRNCISNVRLEGLSYAMAAHRLLYLMREACKRQISGVSLKDEAQLNTLESDDSAENSDRKIGNFLLDGPAVPH”, “not failed”.
